The numbers were not newly measured in paper PMC3061256, which cites them from elsewhere.

The target in this series is HPr (Escherichia coli) (UniProt P0AA04).

Consider “EIN (enzyme I N-terminal domain) N-terminal domain (from UniProt P08839)”, for which the Kd (commonly the equilibrium constant for the complex coming apart) is 10 µM.
